Measured values reported in patent US20170101442A1 (CURATORS OF THE UNIVERSITY OF MISSOURI, published 2017).
Ends that are not written are not given here.

Tests used:
[1] = target: T1, insulin-like growth factor 2 receptor (IGF2R) on human hepatic stellate cells LX-2 (human, UniProt P11717 41-2491); assay: flow cytometry, 5-FAM labelled peptide titrated on LX-2 cells, 1 h at 37 C; apparent Kd
T1 construct: Endogenous IGF2R on LX-2 cells; also called LX-2 cells; LX 2 cells
Protocol: (§1) The cells were incubated with 5 FAM labeled peptides at different concentrations for 1 h at 37° C. The labeled cells were detected by flow cytometry, and the apparent Kd value was calculated using GraphPad Prism. […] The result is consistent with the cellular uptake result depicted in FIGS. 7A-7B, 8A-8G, and 9A-9G.

[2] = target: T1, insulin-like growth factor 2 receptor …; assay: flow cytometry on LX-2 cells; apparent Kd of the dimer against that of the monomer
Protocol: as §1

[3] = target: T1, insulin-like growth factor 2 receptor …; assay: flow cytometry, labelled dimeric peptide titrated on LX-2 cells; apparent Kd
Protocol: as §1

T1 sequence (P11717 41-2491 R1619G limits assumed): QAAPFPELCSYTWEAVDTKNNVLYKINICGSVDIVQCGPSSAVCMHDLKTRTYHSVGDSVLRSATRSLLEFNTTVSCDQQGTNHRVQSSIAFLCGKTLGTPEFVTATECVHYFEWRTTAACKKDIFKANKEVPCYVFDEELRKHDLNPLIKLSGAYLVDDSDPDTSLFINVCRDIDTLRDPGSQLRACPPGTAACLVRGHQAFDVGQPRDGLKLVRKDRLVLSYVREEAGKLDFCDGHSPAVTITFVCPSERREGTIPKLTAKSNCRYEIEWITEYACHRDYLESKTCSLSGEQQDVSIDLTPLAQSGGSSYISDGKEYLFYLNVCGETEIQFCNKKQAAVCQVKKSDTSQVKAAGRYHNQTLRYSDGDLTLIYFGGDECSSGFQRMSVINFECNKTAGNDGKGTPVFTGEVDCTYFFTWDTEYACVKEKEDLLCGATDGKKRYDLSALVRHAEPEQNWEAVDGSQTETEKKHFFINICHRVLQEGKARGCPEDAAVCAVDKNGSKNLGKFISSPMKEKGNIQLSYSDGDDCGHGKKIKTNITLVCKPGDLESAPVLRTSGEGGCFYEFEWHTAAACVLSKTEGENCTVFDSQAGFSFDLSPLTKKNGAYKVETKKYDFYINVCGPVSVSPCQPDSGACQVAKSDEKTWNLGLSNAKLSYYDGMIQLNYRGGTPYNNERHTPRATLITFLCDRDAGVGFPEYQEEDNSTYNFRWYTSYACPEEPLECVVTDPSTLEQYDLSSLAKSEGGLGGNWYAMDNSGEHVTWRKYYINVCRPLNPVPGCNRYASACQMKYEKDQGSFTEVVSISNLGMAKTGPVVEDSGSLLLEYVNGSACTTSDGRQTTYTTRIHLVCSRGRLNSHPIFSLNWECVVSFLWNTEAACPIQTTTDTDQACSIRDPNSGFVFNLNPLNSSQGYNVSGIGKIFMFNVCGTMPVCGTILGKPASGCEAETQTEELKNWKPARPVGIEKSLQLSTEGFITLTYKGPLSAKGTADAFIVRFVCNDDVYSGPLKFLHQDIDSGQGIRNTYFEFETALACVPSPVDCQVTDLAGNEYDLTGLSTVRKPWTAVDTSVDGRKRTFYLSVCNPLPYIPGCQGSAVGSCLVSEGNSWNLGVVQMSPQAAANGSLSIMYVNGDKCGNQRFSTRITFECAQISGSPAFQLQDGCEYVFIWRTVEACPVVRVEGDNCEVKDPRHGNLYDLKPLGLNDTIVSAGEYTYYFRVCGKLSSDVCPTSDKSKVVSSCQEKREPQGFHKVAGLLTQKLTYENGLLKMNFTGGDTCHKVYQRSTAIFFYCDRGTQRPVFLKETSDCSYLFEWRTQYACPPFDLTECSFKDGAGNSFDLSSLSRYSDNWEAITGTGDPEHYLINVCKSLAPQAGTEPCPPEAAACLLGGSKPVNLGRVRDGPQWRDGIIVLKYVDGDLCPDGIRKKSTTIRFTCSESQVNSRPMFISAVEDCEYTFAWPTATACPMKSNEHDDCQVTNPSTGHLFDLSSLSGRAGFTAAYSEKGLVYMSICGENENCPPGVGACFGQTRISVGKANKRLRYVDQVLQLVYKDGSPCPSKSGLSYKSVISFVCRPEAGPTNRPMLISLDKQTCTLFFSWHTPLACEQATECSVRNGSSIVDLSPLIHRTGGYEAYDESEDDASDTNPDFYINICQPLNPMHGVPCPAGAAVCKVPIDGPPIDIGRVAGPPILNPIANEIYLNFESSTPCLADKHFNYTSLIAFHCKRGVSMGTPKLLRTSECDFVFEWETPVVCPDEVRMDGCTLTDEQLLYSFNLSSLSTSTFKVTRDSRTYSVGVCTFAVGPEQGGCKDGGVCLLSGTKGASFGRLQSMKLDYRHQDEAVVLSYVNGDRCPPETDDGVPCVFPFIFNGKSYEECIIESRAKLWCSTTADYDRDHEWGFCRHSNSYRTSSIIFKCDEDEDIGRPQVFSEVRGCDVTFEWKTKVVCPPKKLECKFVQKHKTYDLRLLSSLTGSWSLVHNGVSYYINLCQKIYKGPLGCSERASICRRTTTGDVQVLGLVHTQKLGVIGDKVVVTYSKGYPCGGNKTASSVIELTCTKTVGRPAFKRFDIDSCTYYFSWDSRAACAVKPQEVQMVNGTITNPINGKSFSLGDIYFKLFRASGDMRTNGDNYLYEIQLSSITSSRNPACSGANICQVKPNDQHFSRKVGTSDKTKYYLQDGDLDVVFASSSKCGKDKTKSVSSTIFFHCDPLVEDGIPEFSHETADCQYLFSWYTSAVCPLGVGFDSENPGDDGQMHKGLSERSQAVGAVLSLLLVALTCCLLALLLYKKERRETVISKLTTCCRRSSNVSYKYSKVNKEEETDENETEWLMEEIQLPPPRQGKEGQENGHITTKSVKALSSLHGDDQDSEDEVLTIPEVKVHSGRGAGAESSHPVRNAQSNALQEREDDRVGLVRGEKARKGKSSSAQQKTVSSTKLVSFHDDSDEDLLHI

| Kd [1] | fold lower apparent Kd against monomeric peptide 431 [2] | Kd [3] | Binder |
| --- | --- | --- | --- |
| 6.19 µM |  |  | VHWDFRQWWQPS (also: 5-FAM label, position not given here) [Peptide-431] |
|  | ~9 fold | 0.701 µM | VHWDFRQWWQPS (also: dimer: two copies linked via a lysine, imaging agent coupled to the linker) [dimeric peptide 431] |
